According to the RNAGym collection of RNA variant scans (doi:10.7554/elife.80360):

B1: Hairpin Ribozyme (parent)
chain: GUCCUCUUUCACGUGCGCGUGAAAGAGAGAAGUGAACCAGAGAAACACACGUUGUGGUAUAUUACCUGGUA

Variants of: B1
Test: self-cleavage, relative activity (ratio to wild type); higher = more cleavage; co-transcriptional

Row | Variant | self-cleavage
1 | A22U A44C | 0.239
2 | C4G U53C | 0.264
3 | A26G A39C | 0.571
4 | A11U A35C | 0.86
5 | A36U A45C | 0.224
6 | C18U A44U | 0.15
7 | G1U U60A | 0.195
8 | A31C C37A | 0.0507
9 | A31C C37U | 0.134
10 | G29A G69A | 0.117
11 | G40C A59G | 0.0907
12 | G15C G27A | 0.555
13 | A28C G42U | 0.0852
14 | U58G C65G | 0.146
15 | C12G A31U | 0.152
16 | C4A U58C | 0.293
17 | U2C C4A | 0.1
18 | U5C C12G | 0.244
19 | C6G G32C | 0.0741
20 | C16A A64G | 0.455
21 | C16A G57U | 0.242
22 | U52G A71G | 0.654
23 | U2C U52G | 0.0756
24 | A26C U67A | 0.0843

Row | Variant | self-cleavage
25 | C37U A44U | 0.173
26 | U5G U9C | 0.197
27 | C6A A41C | 0.873
28 | A23G G25A | 0.413
29 | G21A A47C | 0.402
30 | G29A C66U | 0.194
31 | A41G G54U | 0.577
32 | U60C U63C | 0.314
33 | U8A A45C | 0.158
34 | U9C U55A | 0.299
35 | G19U U70G | 0.79
36 | G19C A30G | 0.187
37 | G29U U60A | 0.169
38 | G15U A45C | 0.169
39 | G17C U52C | 0.778
40 | U7C G19U | 0.68
41 | G25U C50U | 0.287
42 | G27U A61U | 0.107
43 | U7C G13A | 0.615
44 | G21U C38G | 0.167
45 | C37G G40U | 0.186
46 | C6G C10A | 0.354
47 | U33A C38G | 0.128
48 | U5A U33A | 0.145

Row | Variant | self-cleavage
49 | U2G A43C | 0.115
50 | A23C A36U | 0.475
51 | A31U A47C | 0.109
52 | A23C U33C | 0.307
53 | C6G U58G | 0.498
54 | A30G A44U | 0.227
55 | C10G U33A | 0.138
56 | C18U C66A | 0.25
57 | C16U A31C | 0.165
58 | A28G C50A | 0.415
59 | G54U A64G | 0.4
60 | G27A U67G | 0.175
61 | G17U A28C | 0.383
62 | G15U G42U | 0.369
63 | G57U C65U | 0.25
64 | G15U G34A | 1.33
65 | G13A G69U | 0.24
66 | U9G A47U | 0.0873
67 | C18U A30C | 0.21
68 | U9G A26U | 0.477
69 | U9G G13U | 0.678
70 | A11U A59G | 0.0747
71 | C37A A39U | 0.0999
72 | C12G A43C | 0.125

Row | Variant | self-cleavage
73 | A26G A45G | 0.132
74 | A11G A71G | 0.814
75 | U53G U55A | 0.269
76 | G19U C38A | 0.141
77 | C37A G68C | 0.254
78 | A41G A59C | 0.436
79 | U7C U33G | 0.129
80 | A39G G54U | 0.163
81 | G32U U52C | 0.144
82 | C46U C48A | 0.203
83 | G13A U67A | 0.27
84 | A44G U62G | 0.207
85 | A44G U62A | 0.0675
86 | G51U U58G | 0.797
87 | G15A G68C | 0.219
88 | G29U A30C | 0.154
89 | C6A U53A | 0.456
90 | A44U A47G | 0.0154
91 | U8G C65A | 0.97
92 | C16A U55C | 0.288
93 | C6G U62G | 0.159
94 | U8C G25U | 0.32
95 | G25A A39C | 0.374
96 | G17C U53G | 0.41

Row | Variant | self-cleavage
97 | C10G A71G | 0.705
98 | G19U G69U | 0.227
99 | U55G U63G | 0
100 | G42A U52G | 0.0884
101 | G1A A47C | 0.124
102 | G29U A35C | 0.11
103 | A47U U53A | 0.133
104 | A11G G57U | 0.392
105 | A39G A45G | 0.0935
106 | A24U A49G | 0.533
107 | A35U G42C | 0.246
108 | A11U U33G | 0.151
109 | A11U U33C | 0.152
110 | U14G C38G | 0.119
111 | C3U G69C | 0.185
112 | G17A G29C | 0.169
113 | A24C A43U | 0.115
114 | G15U A36C | 0.839
115 | U7G G57A | 0.149
116 | G40C U58C | 0.0707
117 | A23C U67C | 0.249
118 | A30C G51U | 0.178
119 | C38U A45C | 0.108
120 | G19C A28C | 0.304

Row | Variant | self-cleavage
121 | A30U C48U | 0.197
122 | U5G C38U | 0.195
123 | U20G A26G | 0.788
124 | G21C A26U | 0.57
125 | C38U U60A | 0.428
126 | G19C G68A | 0.276
127 | C38G G57C | 0.103
128 | U20A G51C | 0.846
129 | U8C A64G | 0.443
130 | G32U G51U | 0.119
131 | U5G A71U | 0.306
132 | C3A C6G | 0.455
133 | G13U G54U | 0.588
134 | G54C A61C | 0.183
135 | G29A G42U | 0.197
136 | C18G A36G | 0.68
137 | G15C A31G | 0.692
138 | C48A G57C | 0.148
139 | U2G G40U | 0.072
140 | A30G G51A | 0.254
141 | U52G U53G | 1.39
142 | A47U U70G | 0.141
143 | U20G G32A | 0.124
144 | G27A G68A | 0.241

Row | Variant | self-cleavage
145 | C4U U8C | 0.241
146 | C4U U70G | 0.214
147 | C37A C50U | 0.138
148 | G25U G34U | 1.28
149 | A41C C66U | 0.614
150 | U9C G25U | 0.386
151 | U62G C65G | 0.223
152 | G15A U52C | 0.916
153 | G32A G51U | 0.122
154 | C3A A71G | 0.715
155 | U58A U70C | 0.728
156 | G1C G34A | 0.162
157 | U2A C38U | 0.14
158 | U14C A45G | 0.0672
159 | C16U A35G | 0.937
160 | A31G U63G | 0.135
161 | G42U A44C | 0.188
162 | A30C U55G | 0.0965
163 | G51U G56A | 0.153
164 | U62A G69U | 0.04
165 | U63A G69C | 0.0966
166 | A23G G42C | 0.33
167 | U52C A59U | 0.115
